Assays:
hPAR3 (Biotin) [1] = target: T1, hPAR3 (Biotin) (human, biotin on the C-terminal lysine (GGGGSK-biotin, SKB)); assay: ELISA, hybridoma supernatant
T1 construct: also called hPAR3 peptide
T1 peptide: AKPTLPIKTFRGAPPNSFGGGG

hPAR1 (Biotin) [2] = target: T2, hPAR1 (Biotin) (human, biotin on the C-terminal lysine (GGGGSK-biotin, SKB)); assay: ELISA, hybridoma supernatant
T2 construct: also called hPAR1 peptide
T2 peptide: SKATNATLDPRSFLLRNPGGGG

hPAR4 (Biotin) [3] = target: T3, hPAR4 (Biotin) (human, biotin on the C-terminal lysine (GGGGSK-biotin, SKB)); assay: SPR (Bio-Rad ProteOn XPR36), biotinylated peptide captured, antibody as analyte
T3 construct: also called hPAR4 biotinylated peptide; Human PAR4 peptide (biotinylated)
T3 peptide: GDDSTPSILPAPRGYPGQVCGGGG

[4] = target: T4, human PAR4 on isolated human platelets (human, UniProt Q96RI0 18-385); assay: flow cytometry on isolated human platelets
T4 construct: Native receptor of donor platelets (genotypes AA, AT, TT at residue 120); also called hPAR4
T4 sequence: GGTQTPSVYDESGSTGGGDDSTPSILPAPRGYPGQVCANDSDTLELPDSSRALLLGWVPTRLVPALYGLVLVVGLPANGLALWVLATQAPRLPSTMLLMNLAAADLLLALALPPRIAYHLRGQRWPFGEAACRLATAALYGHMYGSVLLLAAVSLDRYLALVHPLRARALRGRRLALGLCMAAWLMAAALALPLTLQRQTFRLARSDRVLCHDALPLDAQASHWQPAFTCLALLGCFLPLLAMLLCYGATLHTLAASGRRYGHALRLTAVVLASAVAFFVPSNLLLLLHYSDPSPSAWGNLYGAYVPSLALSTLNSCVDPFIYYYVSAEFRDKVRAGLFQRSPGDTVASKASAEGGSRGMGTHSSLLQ

hPAR3 (Biotin) [5] = target: T1, hPAR3 (Biotin); assay: ELISA, biotinylated peptides on streptavidin plate
Procedure: (§1) Biotinylated peptides (hPAR1-4) were diluted in Wash buffer and allowed to bind to the blocked Streptavidin coated wells at 10 ug/ml (100 ul per well) for 1 hour at room temperature with gentle mixing. Wells were washed 3 times as above and purified anti-hPAR4 mAbs prepared at 10 ug/ml in Wash buffer were allowed to bind (100 ul/well) for 1 hour at room temperature with gentle mixing. The plate was washed 3 times as above and anti-mouse Fc conjugated to Alkaline phosphatase (AP) at 0.3 ug/ml (100 ul) was added to the wells for 1 hour as above. Wells were washed 3 times as above and developed with Alkaline Phosphatase substrate as described for the screening supernatant ELISA.
(§2) To further characterise the purified anti-hPAR4 mAb's the specificity of the mAbs to hPAR1, hPAR2, hPAR3 and hPAR4 biotinylated peptides was performed.

hPAR1 (Biotin) [6] = target: T2, hPAR1 (Biotin); assay: ELISA, biotinylated peptides on streptavidin plate
Procedure: as §1, §2

hPAR2 (Biotin) = target: T5, hPAR2 (Biotin) (human, biotin on the C-terminal lysine (GGGGSK-biotin, SKB)); assay: ELISA, biotinylated peptides on streptavidin plate
T5 construct: also called hPAR2 peptide
T5 peptide: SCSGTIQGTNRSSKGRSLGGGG
Procedure: as §1, §2

hPAR4 (Biotin) [7] = target: T3, hPAR4 (Biotin); assay: SPR (Biacore T200), biotinylated hPAR4 peptide on SA chip, mAb as analyte

B1: 5H.RH4 (antibody, IgG2b, V domains shown)
VH: QVQLQQWGAGLLKPSETLSLTCAVYGGSFSNYYWSWIHQPPGKGLEWIGEINHSGSTNYNPSLKSRVTISVDTSKKQFSLNLSSVTAADTAVYYCKVEHSSSSGHYYYGMDVWGQGTTVTVSS
VL: DIQMTQSPSSLSASVGDRVTITCRASQTISYYLNWYQQKPGKAPKLLIYAASRLQSGVPSRFSGSGSGTDFTLTISSLQPEDFTTYYCQQSYSTPLTFGGGTKVGIK
notes: Human variable regions on mouse constant regions; isotype IgG2b/κ; Tested as parent hybridoma supernatant (MoB5H H4); also called 5H RH4.C8b.A3.A6; MoB5H H4
With B1 the “Binding to PAR3 ratio” value (hPAR3 (Biotin) [1]) was 0.9 ratio and the “Binding to PAR1 ratio” value (hPAR1 (Biotin) [2]) was 1 ratio.

B2: 5A.RC3 (antibody, IgG2a, V domains shown)
VH: QVQLVESGGGVVQPGRSLRLSCAASGFTLSNYGMHWVRQAPGKGLEWVSVIWYDGSNKHYADSVKGRFTISRDNSKNTLYLQMNSLRAEDTAVYYCARESIVEVLPPFDYWGQGTLVTVSS
VL: KIVLTQSPGTLSLSPGERVTLSCRASQRVRNNYLAWFQQKPGQAPRLFIYGASSRATGIPDRFSGSGSGTDFIFTISRLEPEDFAVYYCQQYGNSYTFGQGTKLEIK
notes: Human variable regions on mouse constant regions (HumAb mice); isotype IgG2a/κ; also called 5A.RC3.F10b.H4b; MoB5A-RC3.F10b.H4b
B2 was tested, and the Kd (hPAR4 (Biotin) [3]) was ~400 pM, the “Binding to human platelets, FACS GMFI at 10 ug/ml (over isotype control)” value (from here on “Binding … (over isotype control)”) [4] was 39 GMFI and the binding result (hPAR3 (Biotin) [5]) was “no binding (tested: 10 ug/ml)”. For the same binder, the binding result (hPAR1 (Biotin) [6]) was “no binding (tested: 10 ug/ml)”, the binding result (hPAR2 (Biotin)) was “no binding (tested: 10 ug/ml)” and the Kd (hPAR4 (Biotin) [7]) was 320 pM. It also gave a koff (hPAR4 (Biotin) [7]) of 0.000417 s⁻¹ and a kon (hPAR4 (Biotin) [7]) of 1.32e+06 M⁻¹ s⁻¹.

B3: 5F.RE6 (antibody, IgG2a, V domains shown)
VH: QVQLAESGGGVVQPGRSLRVSCAASGFTFSSYGMHWVRQAPGKGLEWVAVIWYDGTKKYYADSLKGRFTISRDNSKYTLYLQMNSLRADDTALYFCARKGARGITGLDYWGQGTLVTVSS
VL: DIQMTQSPSSLSASAGDRITITCRASQSISNYLNWYQQKPGKAPKLLIYAASSLQSGVPSRFSGSGSGTDFTLTISSLQPEDFASYYCRQNYNTPLTFGGGTKVEIK
notes: Human variable regions on mouse constant regions; isotype IgG2a/κ; Tested as parent hybridoma supernatant (MoB5F E6); also called 5F RE6.D3.E7; MoB5F E6
With B3 the “Binding to PAR3 ratio” value (hPAR3 (Biotin) [1]) was 0.8 ratio and the “Binding to PAR1 ratio” value (hPAR1 (Biotin) [2]) was 1.1 ratio.

B4: 5H.RA3 (antibody, IgG2a, V domains shown)
VH: QVQLVESGGGVVQPGRSLRVSCAASGFTFSSYGMLWVRQAPGKGLEWVAVIWYDGTKKYYADSLKGRFTISRDNSKYTLYLQMNSLRADDTALYFCARKGARGITGLDYWGQGTLVTVSS
VL: not shown
notes: Human variable regions on mouse constant regions; isotype IgG2a/κ; also called 5H.RA3.D3b.A2b; MoB5H A3
With B4 the “Binding … (over isotype control)” value [4] was 100 GMFI.

B5: 5H.RF2 (antibody, IgG2a, V domains shown)
VH: QVQLQQWGAGLLKPSETLALTCAVYGGSLSDYYWSWIRQPPGKGLEWIGEINHSGTTNYNPSLKSRVTISVDTSKKQFSLKLSSVTAADTAVYYCAIEYSNSRGYYYGMDVWGQGTTVTVSS
VL: DIQMTQSPSSLSASAGDRITITCRASQTISNYLNWYQQKPGKAPKLLIYAASSLQSGVPSRFSGSGSGTDFTLTISSLQPEDFASYYCRQNYNTPLTFGGGTKVEIK
notes: Human variable regions on mouse constant regions; isotype IgG2a/κ; also called 5H.RF2.A5b.D3.C2; MoB5H F2
For B5, the “Binding to PAR3 ratio” value (hPAR3 (Biotin) [1]) was 0.9 ratio, the “Binding to PAR1 ratio” value (hPAR1 (Biotin) [2]) was 1 ratio and the binding result (hPAR3 (Biotin) [5]) was “no binding (tested: 10 ug/ml)”. For the same binder, the binding result (hPAR1 (Biotin) [6]) was “no binding (tested: 10 ug/ml)”, the binding result (hPAR2 (Biotin)) was “no binding (tested: 10 ug/ml)” and the Kd (hPAR4 (Biotin) [7]) was 610 pM. The koff (hPAR4 (Biotin) [7]) was 0.00111 s⁻¹ and the kon (hPAR4 (Biotin) [7]) was 1.84e+06 M⁻¹ s⁻¹.

B6: 5I.RG1 (antibody, IgG3, V domains shown)
VH: QVQLQQWGAGLLKPSETLSLACAISSGSFSTYFWRWIRQPPGKGLEWIGEIIHTGSTTYNPSLKSRVTISVDTSKNQLSLKLSSVTAADTAVYYCAFEYSSSGGYYYGMDVWGQGTTVTVSS
VL: DIQMTQSPSSLSASVGDRVTITCRASQSISSYLNWYQQIPGKAPNLLIYAASSLRSGVPSRFSGSGSGTDFTLTISSLQPEDFATYYCQQTYSTPLTFGGGTKVEIK
notes: Human variable regions on mouse constant regions; isotype IgG3/κ; also called 5I.RG1.D6.C1b; 51.RG1
B6 was tested, and the “Binding to PAR3 ratio” value (hPAR3 (Biotin) [1]) was 1 ratio, the “Binding to PAR1 ratio” value (hPAR1 (Biotin) [2]) was 1 ratio and the binding result (hPAR3 (Biotin) [5]) was “no binding (tested: 10 ug/ml)”. For the same binder, the binding result (hPAR1 (Biotin) [6]) was “no binding (tested: 10 ug/ml)”, the binding result (hPAR2 (Biotin)) was “no binding (tested: 10 ug/ml)” and the Kd (hPAR4 (Biotin) [7]) was 360 pM. For the same binder, the koff (hPAR4 (Biotin) [7]) was 0.000667 s⁻¹ and the kon (hPAR4 (Biotin) [7]) was 1.85e+06 M⁻¹ s⁻¹.

B7: 5F.RF3 (antibody, IgG2b, V domains shown)
VH: QVQLVQSGAEVKKPGASVKVSCKTSAYTFTNYGISWVRQAPGQGLEWMGWISPYNGNTNYAQKLQGRVTMTTDTSTRTAYMELRSLRSDDTAVYYCAREYNRSSRGRYYYYGMDVWGQGTTVTVSS
VL: EIVLTQSPGTLSLSPGERATLSCRASQSVSSNYLAWYQKKPGQAPRLLISGASSRATGIPDRFSGSGSGTDFTLTISRLEPEDFAVYYCQQYGSSPWTFGQGTKVEIK
notes: Human variable regions on mouse constant regions; isotype IgG2b/κ; also called 5F.RF3.A7b.C9; MoB5F-RF3.A7b.C9
In the case of B7, the “Binding … (over isotype control)” value [4] is reported as 53 GMFI.

B8: 5G.RG1 (antibody, IgG1, V domains shown)
VH: QVQLVESGGGVVQPGRSLRLSCVASGFTLSSYGMHWVRQAPGKGLEWVAVIWYDGSSKYYTDSVKGRFDISRDNSKNTLYLQMNILRAEDTAVYYCARETILIGGVPFDYWGQGTLVTVSS
VL: EIVLTQSPGTLSLSPGERATLSCGASQSIRSNYLAWYQQKPGQAPRLLIYGASSRATGTPDRFSGSGSGTDFTLTITRLEPEDFALYYCQQYGRSYTFGQGTKLEIK
notes: Human variable regions on mouse constant regions; isotype IgG1/κ; Tested as parent hybridoma supernatant (MoB5G G1); also called 5G RG1.D3.C2b; MoB5G G1
With B8 the “Binding to PAR3 ratio” value (hPAR3 (Biotin) [1]) was 0.8 ratio and the “Binding to PAR1 ratio” value (hPAR1 (Biotin) [2]) was 1.1 ratio.

B9: 5G.RA1 (antibody, IgG2a, V domains shown)
VH: QVQLVESGGGVVQPGRSLRLSCAASGFTFSSYGMHWVRQAPGKGLEWVAVIWYDGSNKYYADSVKGRFTISRDNSKNTLYLQMNSLRAEDTAVYYCARETALVRGVPFDYWGQGTLVTVSS
VL: not shown
notes: Human variable regions on mouse constant regions; isotype IgG2a/κ; also called 5G.RA1.E10.G3; MoB5G A1
With B9 the “Binding … (over isotype control)” value [4] was 25 GMFI.

B10: 5D.RH4 (antibody, IgG2a, V domains shown)
VH: QIQLVESGGGVVQPGRSLRLSCAASGFTFSSDGMHWVRQAPGKGLEWVAVIWFDGRNKYYLDSVKGRFTISRDNSKNTLYLQMNSLRAEDTAVYYCARESSISTRPPFDYWGQGTLVTVSS
VL: not shown
notes: Human variable regions on mouse constant regions; isotype IgG2a/κ; also called 5D.RH4.G7.E6.C7b.G7
In the case of B10, the “Binding … (over isotype control)” value [4] is reported as 33 GMFI.

B11: 5H.RD2 (antibody, IgG1, V domains shown)
VH: EVQLVESGGDLVKPGGSLRLSCSASGFTFFNTWMNWVRQAPGKGLEWVGRVKSKNDGGTKDYAAPVTGRFTISRDDSKDTLYLQMNSLKTEDTAVYYCTTDPHYDFWSAYWGQGTLVTVSS
VL: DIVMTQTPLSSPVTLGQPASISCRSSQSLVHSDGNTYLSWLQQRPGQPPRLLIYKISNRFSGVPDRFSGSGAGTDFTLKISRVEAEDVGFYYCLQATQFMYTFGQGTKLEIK
notes: Human variable regions on mouse constant regions; isotype IgG1/κ; also called 5H.RD2.A7b; MoB5H-RD2.A7b
For B11, the “Binding to PAR3 ratio” value (hPAR3 (Biotin) [1]) was 0.9 ratio and the “Binding to PAR1 ratio” value (hPAR1 (Biotin) [2]) was 1 ratio.

Reference: patent publication US20210179707A1 (published 2021)
